The source of these data is US20210347913A1 (published 2021).

Assay [1] has as its target T1, PTK7 on PTK7 positive cell line SaOS-2 (osteosarcoma) (UniProt Q13308 31-1070).
T1 chain: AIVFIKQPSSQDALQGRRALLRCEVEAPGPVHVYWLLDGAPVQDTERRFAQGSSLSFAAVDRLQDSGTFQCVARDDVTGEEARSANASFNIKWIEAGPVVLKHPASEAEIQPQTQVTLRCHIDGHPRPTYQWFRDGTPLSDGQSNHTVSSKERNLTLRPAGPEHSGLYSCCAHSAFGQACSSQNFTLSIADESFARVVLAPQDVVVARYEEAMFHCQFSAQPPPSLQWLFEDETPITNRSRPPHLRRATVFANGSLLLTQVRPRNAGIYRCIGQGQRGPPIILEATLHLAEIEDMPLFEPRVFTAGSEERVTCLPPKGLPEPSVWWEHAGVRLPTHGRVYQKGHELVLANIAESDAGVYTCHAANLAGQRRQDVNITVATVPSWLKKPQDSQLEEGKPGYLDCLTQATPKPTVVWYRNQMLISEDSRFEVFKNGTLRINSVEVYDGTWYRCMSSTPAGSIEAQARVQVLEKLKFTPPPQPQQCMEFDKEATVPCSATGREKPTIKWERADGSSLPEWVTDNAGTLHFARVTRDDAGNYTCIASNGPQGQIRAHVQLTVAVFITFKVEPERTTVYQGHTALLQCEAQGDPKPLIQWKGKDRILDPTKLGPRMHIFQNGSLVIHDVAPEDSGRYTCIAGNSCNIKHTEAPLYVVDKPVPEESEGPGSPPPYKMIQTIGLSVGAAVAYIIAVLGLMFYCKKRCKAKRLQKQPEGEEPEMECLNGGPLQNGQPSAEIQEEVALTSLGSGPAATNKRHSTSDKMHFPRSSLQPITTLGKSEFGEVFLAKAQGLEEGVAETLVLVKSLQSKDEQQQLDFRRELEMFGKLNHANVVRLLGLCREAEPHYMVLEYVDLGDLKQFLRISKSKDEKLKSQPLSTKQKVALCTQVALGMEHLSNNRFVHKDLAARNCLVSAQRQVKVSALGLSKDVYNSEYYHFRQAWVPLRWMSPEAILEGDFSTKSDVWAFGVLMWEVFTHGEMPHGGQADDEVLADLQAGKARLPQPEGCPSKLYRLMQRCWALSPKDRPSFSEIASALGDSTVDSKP
In words: FACS binding SaOS-2. (In flow cytometry, cells or beads pass a laser one at a time.)

Assay [2] deals with T1, PTK7 on PTK7 positive cell line SaOS-2 …. The experiment in a line: FACS binding SaOS-2; -MMP14.
For assay [3] the target is unchanged. The experiment in a line: FACS binding SaOS-2; +MMP14.

B1: 181 M9 (antibody)
chain: QGCHIGKRPVPCLWIGSSGGSGGSGGSGGGPLGLAGGSSGQVQLVESGGGVVQPGRSLRLSCAASGFTFSSYGMHWVRQAPGKGLEWVAVIWDDGSNKYYVDSVKGRFTISRDNSKNTLYLQMNSLRAEDTAVYYCARDDYYGSGSFNSYYGTDVWGQGTTVTVSSGGGGSGGGGSGGGGSEIVLTQSPATLSLSPGERATLSCRASQSVSIYLAWYQQKPGQAPRLLIYDASNRATGIPARFSGSGSGTDFTLTISSLEPEDFAVYYCQQRSNWPPFTFGPGTKVDISAAAFVPVFLPAKPTTTPAPRPPTPAPTIASQPLSLRPEACRPAAGGAVHTRGLDFACDIYIWAPLAGTCGVLLLSLVITLYCNHRNRSKRSRLLHSDYMNMTPRRPGPTRKHYQPYAPPRDFAAYRSRVKFSRSADAPAYQQGQNQLYNELNLGRREEYDVLDKRRGRDPEMGGKPRRKNPQEGLYNELQKDKMAEAYSEIGMKGERRRGKGHDGLYQGLSTATKDTYDALHMQALPPR
A word on the EC50: it is the concentration giving half of the maximal effect. A higher EC50 goes with lower potency in that assay. For B1, the EC50 in assay [1] was determined as 141 nM.

B2: 181 M12 (antibody)
chain: QGCTMPVHTYSQWLCGSSGGSGGSGGSGGGPLGLAGGSSGQVQLVESGGGVVQPGRSLRLSCAASGFTFSSYGMHWVRQAPGKGLEWVAVIWDDGSNKYYVDSVKGRFTISRDNSKNTLYLQMNSLRAEDTAVYYCARDDYYGSGSFNSYYGTDVWGQGTTVTVSSGGGGSGGGGSGGGGSEIVLTQSPATLSLSPGERATLSCRASQSVSIYLAWYQQKPGQAPRLLIYDASNRATGIPARFSGSGSGTDFTLTISSLEPEDFAVYYCQQRSNWPPFTFGPGTKVDIKSAAAFVPVFLPAKPTTTPAPRPPTPAPTIASQPLSLRPEACRPAAGGAVHTRGLDFACDIYIWAPLAGTCGVLLLSLVITLYCNHRNRSKRSRLLHSDYMNMTPRRPGPTRKHYQPYAPPRDFAAYRSRVKFSRSADAPAYQQGQNQLYNELNLGRREEYDVLDKRRGRDPEMGGKPRRKNPQEGLYNELQKDKMAEAYSEIGMKGERRRGKGHDGLYQGLSTATKDTYDALHMQALPPR
Consider B2, for which, in assay [1], the EC50 was 93.8 nM.

B3: 181 M7 (antibody)
chain: QGCTMPYHIHSIGLCGSSGGSGGSGGSGGGPLGLAGGSSGQVQLVESGGGVVQPGRSLRLSCAASGFTFSSYGMHWVRQAPGKGLEWVAVIWDDGSNKYYVDSVKGRFTISRDNSKNTLYLQMNSLRAEDTAVYYCARDDYYGSGSFNSYYGTDVWGQGTTVTVSSGGGGSGGGGSGGGGSEIVLTQSPATLSLSPGERATLSCRASQSVSIYLAWYQQKPGQAPRLLIYDASNRATGIPARFSGSGSGTDFTLTISSLEPEDFAVYYCQQRSNWPPFTFGPGTKVDIKSAAAFVPVFLPAKPTTTPAPRPPTPAPTIASQPLSLRPEACRPAAGGAVHTRGLDFACDIYIWAPLAGTCGVLLLSLVITLYCNHRNRSKRSRLLHSDYMNMTPRRPGPTRKHYQPYAPPRDFAAYRSRVKFSRSADAPAYQQGQNQLYNELNLGRREEYDVLDKRRGRDPEMGGKPRRKNPQEGLYNELQKDKMAEAYSEIGMKGERRRGKGHDGLYQGLSTATKDTYDALHMQALPPR
B3 gave a half-maximal effective concentration (EC50) in assay [1] of 118 nM.

B4: 181 M14 (antibody)
chain: QGCTHVAQWAIKAFCGSSGGSGGSGGSGGGPLGLAGGSSGQVQLVESGGGVVQPGRSLRLSCAASGFTFSSYGMHWVRQAPGKGLEWVAVIWDDGSNKYYVDSVKGRFTISRDNSKNTLYLQMNSLRAEDTAVYYCARDDYYGSGSFNSYYGTDVWGQGTTVTVSSGGGGSGGGGSGGGGSEIVLTQSPATLSLSPGERATLSCRASQSVSIYLAWYQQKPGQAPRLLIYDASNRATGIPARFSGSGSGTDFTLTISSLEPEDFAVYYCQQRSNWPPFTFGPGTKVDIKSAAAFVPVFLPAKPTTTPAPRPPTPAPTIASQPLSLRPEACRPAAGGAVHTRGLDFACDIYIWAPLAGTCGVLLLSLVITLYCNHRNRSKRSRLLHSDYMNMTPRRPGPTRKHYQPYAPPRDFAAYRSRVKFSRSADAPAYQQGQNQLYNELNLGRREEYDVLDKRRGRDPEMGGKPRRKNPQEGLYNELQKDKMAEAYSEIGMKGERRRGKGHDGLYQGLSTATKDTYDALHMQALPPR
The molecule B4 showed an EC50 in assay [1] of 68.8 nM.

B5: 181 M5 (antibody)
chain: QGCTYPSWVAYIRFCGSSGGSGGSGGSGGGPLGLAGGSSGQVQLVESGGGVVQPGRSLRLSCAASGFTFSSYGMHWVRQAPGKGLEWVAVIWDDGSNKYYVDSVKGRFTISRDNSKNTLYLQMNSLRAEDTAVYYCARDDYYGSGSFNSYYGTDVWGQGTTVTVSSGGGGSGGGGSGGGGSEIVLTQSPATLSLSPGERATLSCRASQSVSIYLAWYQQKPGQAPRLLIYDASNRATGIPARFSGSGSGTDFTLTISSLEPEDFAVYYCQQRSNWPPFTFGPGTKVDIKSAAAFVPVFLPAKPTTTPAPRPPTPAPTIASQPLSLRPEACRPAAGGAVHTRGLDFACDIYIWAPLAGTCGVLLLSLVITLYCNHRNRSKRSRLLHSDYMNMTPRRPGPTRKHYQPYAPPRDFAAYRSRVKFSRSADAPAYQQGQNQLYNELNLGRREEYDVLDKRRGRDPEMGGKPRRKNPQEGLYNELQKDKMAEAYSEIGMKGERRRGKGHDGLYQGLSTATKDTYDALHMQALPPR
In the case of B5, the EC50 in assay [1] was 29.9 nM.

B6: 181 M6 (antibody)
chain: QGVCTYPPAHRTRFCGSSGGSGGSGGSGGGPLGLAGGSSGQVQLVESGGGVVQPGRSLRLSCAASGFTFSSYGMHWVRQAPGKGLEWVAVIWDDGSNKYYVDSVKGRFTISRDNSKNTLYLQMNSLRAEDTAVYYCARDDYYGSGSFNSYYGTDVWGQGTTVTVSSGGGGSGGGGSGGGGSEIVLTQSPATLSLSPGERATLSCRASQSVSIYLAWYQQKPGQAPRLLIYDASNRATGIPARFSGSGSGTDFTLTISSLEPEDFAVYYCQQRSNWPPFTFGPGTKVDIKSAAAFVPVFLPAKPTTTPAPRPPTPAPTIASQPLSLRPEACRPAAGGAVHTRGLDFACDIYIWAPLAGTCGVLLLSLVITLYCNHRNRSKRSRLLHSDYMNMTPRRPGPTRKHYQPYAPPRDFAAYRSRVKFSRSADAPAYQQGQNQLYNELNLGRREEYDVLDKRRGRDPEMGGKPRRKNPQEGLYNELQKDKMAEAYSEIGMKGERRRGKGHDGLYQGLSTATKDTYDALHMQALPPR
In assay [1], B6 came in with an EC50 of 30.5 nM.

B7: 181 M10 (antibody)
chain: QGCYIGLRMVPCFHMGSSGGSGGSGGSGGGPLGLAGGSSGQVQLVESGGGVVQPGRSLRLSCAASGFTFSSYGMHWVRQAPGKGLEWVAVIWDDGSNKYYVDSVKGRFTISRDNSKNTLYLQMNSLRAEDTAVYYCARDDYYGSGSFNSYYGTDVWGQGTTVTVSSGGGGSGGGGSGGGGSEIVLTQSPATLSLSPGERATLSCRASQSVSIYLAWYQQKPGQAPRLLIYDASNRATGIPARFSGSGSGTDFTLTISSLEPEDFAVYYCQQRSNWPPFTFGPGTKVDIKSAAAFVPVFLPAKPTTTPAPRPPTPAPTIASQPLSLRPEACRPAAGGAVHTRGLDFACDIYIWAPLAGTCGVLLLSLVITLYCNHRNRSKRSRLLHSDYMNMTPRRPGPTRKHYQPYAPPRDFAAYRSRVKFSRSADAPAYQQGQNQLYNELNLGRREEYDVLDKRRGRDPEMGGKPRRKNPQEGLYNELQKDKMAEAYSEIGMKGERRRGKGHDGLYQGLSTATKDTYDALHMQALPPR
As to B7, the EC50 in assay [1] is 1350 nM; in assay [2], 434 nM; in assay [3], 0.49 nM.

B8: 181 M11 (antibody)
chain: QGCTMPSHAVASFLCGSSGGSGGSGGSGGGPLGLAGGSSGQVQLVESGGGVVQPGRSLRLSCAASGFTFSSYGMHWVRQAPGKGLEWVAVIWDDGSNKYYVDSVKGRFTISRDNSKNTLYLQMNSLRAEDTAVYYCARDDYYGSGSFNSYYGTDVWGQGTTVTVSSGGGGSGGGGSGGGGSEIVLTQSPATLSLSPGERATLSCRASQSVSIYLAWYQQKPGQAPRLLIYDASNRATGIPARFSGSGSGTDFTLTISSLEPEDFAVYYCQQRSNWPPFTFGPGTKVDIKSAAAFVPVFLPAKPTTTPAPRPPTPAPTIASQPLSLRPEACRPAAGGAVHTRGLDFACDIYIWAPLAGTCGVLLLSLVITLYCNHRNRSKRSRLLHSDYMNMTPRRPGPTRKHYQPYAPPRDFAAYRSRVKFSRSADAPAYQQGQNQLYNELNLGRREEYDVLDKRRGRDPEMGGKPRRKNPQEGLYNELQKDKMAEAYSEIGMKGERRRGKGHDGLYQGLSTATKDTYDALHMQALPPR
Take B8: the EC50 in assay [1] came out at 222 nM.
